T1: cCFP-DGCR14/ESS2 (human DGCR14/ESS2 fused with the C-terminal fragment of CFP) (Homo sapiens, UniProt Q96DF8 1-476)
T1 construct: BiFC fusion transiently expressed in Arabidopsis leaf mesophyll protoplasts; also called Has DGCR14/ESS2; NM_022719; not shown: C-terminal fragment of CFP (cCFP) from vector pSATI-cCFP-C
T1 sequence: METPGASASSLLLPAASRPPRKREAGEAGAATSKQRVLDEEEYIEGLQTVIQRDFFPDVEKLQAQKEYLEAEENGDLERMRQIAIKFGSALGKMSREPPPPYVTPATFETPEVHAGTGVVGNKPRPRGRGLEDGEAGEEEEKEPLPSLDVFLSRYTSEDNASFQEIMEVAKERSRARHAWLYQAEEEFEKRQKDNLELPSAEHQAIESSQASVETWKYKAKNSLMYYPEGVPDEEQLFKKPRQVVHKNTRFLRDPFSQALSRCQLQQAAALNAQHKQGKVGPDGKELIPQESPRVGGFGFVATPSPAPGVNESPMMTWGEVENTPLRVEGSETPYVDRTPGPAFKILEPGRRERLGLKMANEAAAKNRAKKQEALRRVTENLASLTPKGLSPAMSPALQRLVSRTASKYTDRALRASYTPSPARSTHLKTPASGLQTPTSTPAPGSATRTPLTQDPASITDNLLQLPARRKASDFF

B1: cCFP-DGCR14l (Arabidopsis thaliana DGCR14-like fused with the C-terminal fragment of CFP) (other)
chain: MFLSPGHSPRQISSPSPSSYSDDTLRSTPRSSSSEIIPRNPRKRMRVLDEDAYVEAIEKIIERDYFPDITKLRDRLDWIQAVKTRDPIQIRDAQLKIIERRGKKANHHVGDTEGKTQTPGSTFLRNFTPLDEFDGKTPRTPGVSGREFHGVEVDAGDGDEDIDLNLSLDEFFRRYTSEDNESFSKILEKVNRKKKEKYGFLLEGEKEDGKSIEDVKRDRITDGYGTSDQPPSTLEGWKYTAKNLLMYHPADRGEAPLTEAERAVRLLGLTKEIVKGNTRFHGKTMDSRPREDGSVEILYTPIAGSSPMHISGRDRDKSKRYDLDDLRKTPNPFYVESDKRADNGYSFVRTPSPAPGLDESPFITWGEIDGTPMRLDLEDTPIDIGGSADGPHYNIPSAPPRDVRAHSLSRDASRKLRERSNSMFKKPPLPSPHRSGSASPNVRTLSPAAQKFFRKAIAKSSSTVDESLRASYRGASPRGASPGAVTPKSVRSISRFGKDGTSSETRSP
notes: BiFC fusion transiently expressed in Arabidopsis leaf mesophyll protoplasts; also called Ath DGCR14l; Arabidopsis DGCR14; not shown: C-terminal fragment of CFP (cCFP) from vector pSATI-cCFP-C
B2: nVenus-U1-70 k (U1 SMALL NUCLEAR RIBONUCLEOPROTEIN-70K fused with the N-terminal fragment of Venus) (other, Arabidopsis, UniProt Q42404 1-427, looked up)
chain: MGDSGDPFLRNPNAAVQARAKVQNRANVLQLKLMGQSHPTGLTNNLLKLFEPRPPLEYKPPPEKRKCPPYTGMAQFVSNFAEPGDPEYAPPKPEVELPSQKRERIHKLRLEKGVEKAAEDLKKYDPNNDPNATGDPYKTLFVSRLNYESSESKIKREFESYGPIKRVHLVTDQLTNKPKGYAFIEYMHTRDMKAAYKQADGQKIDGRRVLVDVERGRTVPNWRPRRLGGGLGTSRVGGGEEIVGEQQPQGRTSQSEEPSRPREEREKSREKGKERERSRELSHEQPRERSRDRPREDKHHRDRDQGGRDRDRDSRRDRDRTRDRGDRDRRDRDRGRDRTSRDHDRDRSRKKERDYEGGEYEHEGGGRSRERDAEYRGEPEETRGYYEDDQGDTDRYSHRYDKMEEDDFRYEREYKRSKRSESREYVR
notes: BiFC fusion transiently expressed in Arabidopsis protoplasts; also called AT3G50670; not shown: N-terminal fragment of Venus (nVenus) from vector pSATI-nVenus-C
B3: nVenus-U2B (U2 SMALL NUCLEAR RIBONUCLEOPROTEIN B fused with the N-terminal fragment of Venus) (other, Arabidopsis, UniProt O22922 1-232, looked up)
chain: MLTADIPPNQSIYIQNLNERIKKEELKRSLYCLFSQFGRILDVVALKTPKLRGQAWVTFSEVTAAGHAVRQMQNFPFYDKPMRLQYAKAKSDCLAKAEGTFVPKDKKRKQEEKVERKREDSQRPNTANGPSANGPSANNGVPAPSFQPSGQETMPPNNILFIQNLPHETTSMMLQLLFEQYPGFKEIRMIDAKPGIAFVEYEDDVQASIAMQPLQGFKITPQNPMVISFAKK
notes: BiFC fusion transiently expressed in Arabidopsis protoplasts; also called AT2G30260; not shown: N-terminal fragment of Venus (nVenus) from vector pSATI-nVenus-C

Legend:
Assay in all cases: bimolecular fluorescence complementation (BiFC) in Arabidopsis protoplasts
[1] = target: B2
Description: (§1) Protoplast isolation and transfection were performed as previously described (Xie et al. (The Plant Cell 30, 1645-1660 (2018)). For subcellular localization, 8 μg of DGCR14l-YFP and DGCR14/ESS2-YFP constructs were co-transfected with 2 μg of the nuclear marker construct (mCherry-)VirD2NLS), respectively, into 100 μl of protoplasts (˜2×10⁴ cells) to determine their subcellular localizations. For colocalization, paired constructs (5 μg each) were co-transfected into 100 μl of protoplasts. For BiFC, paired genes were cloned into pSATI-nVenus-C (fuse with nVenus) and pSATI-cCFP-C (fuse with cCFP), respectively. Then their expression cassettes were cloned into pUC119 (pUC-RCS) vector using AscI for transient expression in protoplasts. The generated constructs (4 μl of nVenus construct and 4 μl of cCFP construct) were co-transfected with 2 μl of the nuclear marker construct (mCherry-VirD2NLS) into 100 μl of protoplasts. After 14 h incubation under weak light at room temperature, protoplasts were collected and resuspended in cold W5 solution (2 mM MES pH 5.7, 154 mM NaCl, 125 mM CaCl₂, and 5 mM KCl) to subject to microscopy. Images were collected using a Zeiss LSM 710 confocal microscope, equipped with 514 and 561 nm laser lines for excitation of YFP and mCherry, respectively. Images were processed using Zen software (Zeiss).
(§2) To further test the association of DGCR14l and DGCR14/ESS2 with spliceosome, a bimolecular fluorescence complementation (BiFC) assay was performed in Arabidopsis protoplasts. In this assay, DGCR14 orthologs and U1-70 k were fused with split YFP (C-terminal fragment of CFP (cCFP) and N-terminal of Venus (nVenus)), and co-expressed in protoplasts. The interaction between two proteins will bring cCFP and nVenus together to form a functional YFP, which then leads to fluorescence. […] In contrast, no YFP signal was detected from DGCR14l-U2B or DGCR14/ESS2-U2B interaction (FIG. 2C), further supporting DGCR14's selectivity on spliceosome components.

[2] = target: B3
Description: as §1, §2

[3] = target: T1, cCFP-DGCR14/ESS2 (human DGCR14/ESS2 …)
Description: as §1, §2

Row | Binder | binding result [1] | binding result [2] | binding result [3]
1 | B1 | binds | no binding | 
2 | B2 |  |  | binds
3 | B3 |  |  | no binding
